The record followed here is patent US20240052052A1 (published 2024).

The experiment deals with T1, human CD24 (human, UniProt P25063 27-59, heavily glycosylated, GPI-anchored (as described in the background)).
T1 chain: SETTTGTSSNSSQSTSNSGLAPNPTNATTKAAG
Put plainly: FACS binding; DoHH2 cells. Background: Flow cytometry measures light scatter and fluorescence of single cells or particles in a stream.

B1: SN3 (antibody, V domains shown)
VH: QVQLKESGPGLVAPSQSLSITCTVSGFSLTSYGVHWVRQPPGKGLEWLGVIWAGGSTNYNSALMSRLSISKDNSKSQVFLKMNSLQTDDTAMYYCAVYYGYLFFAYWGQGTLVTVSA
VL: ENVLTQSPAIMSASPGEKVTMTCSASSSVSYMHWYQQKSTTSPKLWIYDTSKLASGVPGRFSGSGSGNSYSLTISSMEAEDVATYYCFQGSGYPLTFGGGTKLEIK
The term EC50 denotes the midpoint of the concentration-response curve. B1: the EC50 came to 1.87 nM.
